From the Human Domainome abundance scans (Beltran et al. 2025) come the findings set out here.

± gives the uncertainty stated by the source.

The labels stand for the following.
B1: Calcium-binding protein 2, residues 155 to 219; numbered along this chain, Q9NPB3 (parent)
chain: RELRDAFREFDTNGDGRISVGELRAALKALLGERLSQREVDEILQDVDLNGDGLVDFEEFVRMMS

Variants of B1 are the subject of the data set. The data set can be described thus: abundance fitness (aPCA) (normalised: wild type 0, dead -1); higher = more abundant; growth selection in yeast, the domain comes from the species named. Particulars: Homo sapiens.
L44E: the abundance fitness is -0.123 ± 0.14.

Take L44I: the abundance fitness came out at 0.072 ± 0.15.

With L54H, the abundance fitness is -0.292 ± 0.31.

In the case of E59S, the abundance fitness was -0.075 ± 0.064.

E59N: the abundance fitness is -0.282 ± 0.22.

In the case of E59F, the abundance fitness is -0.146 ± 0.11.

For the variant E59K, the abundance fitness is -0.092 ± 0.21.

For R62E, the abundance fitness is -0.307 ± 0.14.

Regarding R38K, the abundance fitness was -0.67 ± 0.47.

On to Q45M, for which the abundance fitness was -0.141 ± 0.092.

For D48F, the abundance fitness is -0.434 ± 0.27.

As to D48P, the abundance fitness is -0.231 ± 0.086.

Regarding N50Q, the abundance fitness is -0.014 ± 0.09.

As for N50W, the abundance fitness was -0.627 ± 0.067.

On to L31A, for which the abundance fitness was 0.127 ± 0.059.

For L31T, the abundance fitness was 0.074 ± 0.1.

For the variant G32W, the abundance fitness is -0.282 ± 0.1.

In the case of G32E, the abundance fitness was -0.522 ± 0.083.

G32C: the abundance fitness is -0.514 ± 0.2.

As for V40A, the abundance fitness is 0.006 ± 0.07.

As for V40C, the abundance fitness is -0.086 ± 0.097.

Consider F60K, for which the abundance fitness is -1.08 ± 0.28.

Take D5C: the abundance fitness was -0.178 ± 0.069.

For the variant I43Q, the abundance fitness stood at 0.099 ± 0.11.

In the case of I43C, the abundance fitness was -0.009 ± 0.14.

For the variant F10A, the abundance fitness is 0.11 ± 0.071.

Regarding F10H, the abundance fitness worked out at 0.09 ± 0.065.

With E42D, the abundance fitness was -0.166 ± 0.12.

With E42P, the abundance fitness was -0.301 ± 0.098.

Turning to S19A, the abundance fitness was -0.372 ± 0.098.

As for S19H, the abundance fitness is -0.459 ± 0.16.

Turning to V47K, the abundance fitness is -0.064 ± 0.11.

As for V47Q, the abundance fitness stood at 0.013 ± 0.1.

In the case of V47T, the abundance fitness was -0.041 ± 0.069.

Regarding V47L, the abundance fitness was -0.475 ± 0.049.

Consider V47E, for which the abundance fitness is -0.137 ± 0.056.

Take E22R: the abundance fitness was -0.549 ± 0.061.

On to L3D, for which the abundance fitness is -0.497 ± 0.17.

For the variant Q37E, the abundance fitness came to 0.06 ± 0.098.

For the variant L27Q, the abundance fitness is -0.095 ± 0.16.

As to L27W, the abundance fitness is -0.137 ± 0.094.

Consider T12E, for which the abundance fitness was -0.087 ± 0.13.

For the variant T12C, the abundance fitness was -0.148 ± 0.1.

Regarding L30D, the abundance fitness was -0.101 ± 0.27.

With L30T, the abundance fitness is -0.008 ± 0.066.

In the case of L30P, the abundance fitness is -0.158 ± 0.094.

Turning to L30N, the abundance fitness was determined as 0.151 ± 0.1.

As for M63G, the abundance fitness is -0.16 ± 0.082.

E2Q: the abundance fitness is -0.114 ± 0.064.

D56V: the abundance fitness amounted to 0.044 ± 0.077.

Regarding D56F, the abundance fitness was -0.862 ± 0.26.

In the case of D56G, the abundance fitness is -0.031 ± 0.041.

Take D46E: the abundance fitness was -0.155 ± 0.078.

For G16A, the abundance fitness is -0.332 ± 0.046.

With G16Y, the abundance fitness is -0.743 ± 0.33.

In the case of G16S, the abundance fitness is -0.261 ± 0.055.

For M64H, the abundance fitness worked out at 0.098 ± 0.13.

Take D52T: the abundance fitness was -0.196 ± 0.097.

As for D11K, the abundance fitness is -1.16 ± 0.26.

As for D11R, the abundance fitness is -1.18 ± 0.11.

Consider D11Y, for which the abundance fitness is -0.651 ± 0.3.

For the variant R8D, the abundance fitness is 0.045 ± 0.12.

For the variant E58Q, the abundance fitness was -0.102 ± 0.089.

For the variant G51A, the abundance fitness is 0.062 ± 0.054.

As to F7P, the abundance fitness was -0.997 ± 0.11.

As for F7W, the abundance fitness is -0.142 ± 0.053.

Regarding G14K, the abundance fitness is 0.003 ± 0.11.

On to G14S, for which the abundance fitness is -0.198 ± 0.083.

On to S36W, for which the abundance fitness is -0.177 ± 0.07.

On to S36A, for which the abundance fitness stood at 0.041 ± 0.066.

For the variant S36I, the abundance fitness is 0 ± 0.43.

Regarding S36Q, the abundance fitness stood at 0.047 ± 0.1.

In the case of R4S, the abundance fitness was -0.276 ± 0.083.

For the variant R4H, the abundance fitness is -0.074 ± 0.1.

Take V55H: the abundance fitness is -0.382 ± 0.07.

On to E33Y, for which the abundance fitness was -0.119 ± 0.19.

With E33I, the abundance fitness is -0.074 ± 0.16.

Turning to V20S, the abundance fitness is -0.164 ± 0.076.

For the variant V20T, the abundance fitness was -0.146 ± 0.12.

Consider G53L, for which the abundance fitness is -0.23 ± 0.067.

Consider A26V, for which the abundance fitness was -0.095 ± 0.1.

For the variant A26S, the abundance fitness is -0.214 ± 0.072.

As for A26P, the abundance fitness is -0.251 ± 0.07.

A26R: the abundance fitness was -0.371 ± 0.069.

Regarding G21T, the abundance fitness stood at 0.01 ± 0.069.

With G21L, the abundance fitness is -0.049 ± 0.043.

For the variant G21A, the abundance fitness amounted to 0 ± 0.055.

As for G21F, the abundance fitness was found to be 0.102 ± 0.29.

Regarding V61K, the abundance fitness was -0.029 ± 0.1.

For the variant V61S, the abundance fitness was 0.128 ± 0.076.

Turning to V61T, the abundance fitness was -0.044 ± 0.095.

Take I18V: the abundance fitness is -0.045 ± 0.13.

With L35M, the abundance fitness was -0.399 ± 0.13.

On to L35F, for which the abundance fitness is -0.257 ± 0.12.

Turning to L35H, the abundance fitness was 0.061 ± 0.18.

Regarding A25V, the abundance fitness was -0.035 ± 0.063.

As for A25W, the abundance fitness was -0.189 ± 0.075.

On to R17A, for which the abundance fitness turned out to be 0.001 ± 0.058.

Regarding R17Q, the abundance fitness is -0.193 ± 0.11.

In the case of R17C, the abundance fitness is 0.141 ± 0.088.

A29N: the abundance fitness is -0.438 ± 0.28.
